One block for each substance: values may come before it.
What was measured:
rFVIII [1] = molecular target: T1, rFVIII (Homo sapiens, UniProt P00451); assay: confirmatory binding assay in filtration plate format using 14C-rFVIII; conditions: for 0.5M CaCl2 % total / 2% acetic acid % total / 2% acetic acid dpm / 0.5M CaCl2 dpm: 5 mg beads; for 0.5M CaCl2 dpm: 5° C.; for beads % total / beads dpm: remaining on beads after washes
Method: Confirmatory binding assays were performed in a filtration plate format using individual peptide sequences synthesized directly onto the TOYOPEARL AF amino 650 M resin, at a final substitution density of 0.1 mmole/g resin. A slurry of each individual peptide sequence was prepared using deionized water. A 100 μL volume of beads (corresponding to 5 mg) was loaded into each well of the filtration plate (MULTISCREEN Assay System, Millipore, Bedford, Mass.), in triplicate for each peptide sequence. Beads were washed with 20% ethanol and incubated overnight with equilibration buffer (20 mM imidazole, 10 mM
CaCl2, 0.105 M NaCl, pH 6.9). A 100 μL aliquot of ^14 C-rFVIII diluted in neat PPF to a final concentration of 20-30 nM was loaded into each well and incubated for 1 hour at 5° C. Filtrate (unbound ^14 C-rFVIII) was collected into a microtiter plate and transferred to liquid scintillation vials for dpm counting. Beads were washed sequentially with: 100 μL of equilibration buffer for 15 minutes, 200 μL of 0.5 M CaCl2 (in equilibration buffer), 200 μL of 1.0 M CaCl2 (in equilibration buffer), and 200 uL of 2% by volume glacial acetic acid in water, for 1 hour each at 5° C. Scintillation counting on the unbound ^14 C-rFVIII (plus equilibration buffer wash), salt and acid washes, as well as on the beads was then performed and the overall mass balance calculated.
Beads presenting the appropriate peptide sequence on the surface were placed in the filtration plate wells and incubated sequentially with equilibration buffer, ^14 C-rFVIII in PPF, equilibration buffer, 0.5 M CaCl2 wash, 1.0 M CaCl2 wash and 2% acetic acid wash. After each incubation, filtrate was collected in microtiter plates, and dpm counted on each
In Table 3, the ^14 C-rFVIII was loaded at 20 nM (in PPF) and the radiolabeling yield was at 3.0×10^15 dpm/mole. In Table 4, the ^14 C-rFVIII was loaded at 30 nM (in PPF) and the radiolabeling yield was at 5.0×10^15 dpm/mole.

rFVIII [2] = molecular target: T1, rFVIII; assay: column format binding assay, rFVIII mass per fraction by sandwich capture ELISA for the light chain; conditions: for Flow through ng: 10,000 ng rFVIII in 1:10 PPF injected, 5° C.; for ELISA results % total: Table 9, 0.5M CaCl2 fraction
Method: (§1) Immunoassay on rFVIII using a sandwich capture ELISA for the light chain and activity assay using a chromogenic substrate (COATEST Factor VIII kit from diaPharma, Franklin, Ohio) were performed on a BIOMEK® automated liquid handling system from Beckman Instruments (Brea, Calif.). The monoclonal antibody for rFVIII light chain (known as C7F7), the ELISA assay standard (lot A70K019), and the control for the activity assay (lot A70A001 @ 140 IU/mL) were from the Bayer Corporation (Berkeley, Calif.). The standard for the activity assay was at 11.2 IU/mL (Bayer, Clayton, N.C.), calibrated against the MEGA 1 standard, which is a working standard used by American manufacturers for measuring factor VIII activity (21).
(§2) Additional confirmatory binding assay and performance of the discovered binding peptides in terms of total rFVIII and activity recovery was performed in a column chromatographic format on a microbore HPLC. The resins were packed into 0.4×5 cm columns (Thomson, Springfield, Va.) and tested on the MICHROM HPLC system (Michrom BioResources, Auburn, Calif.). The elution program for the trials utilized the following method. The column was pre-equilibrated with equilibration buffer (as above). A 1 mL aliquot of 1:10 PPF followed by 1 mL of rFVIII (10,000 ng) in 1:10 PPF were injected and allowed sufficient time to flow through the column using equilibration buffer. The column was then washed with step elutions of 0.5 M and 1.0 M CaCl2 in equilibration buffer. The column was exposed to equilibration buffer. Remaining protein was eluted with 2% by volume glacial acetic acid in water. Columns were kept at 5° C. during the chromatographic runs. For each 1 mL injection (equilibration buffer, 1:10 PPF and 10,000 ng rFVIII in 1:10 PPF), the chromatographic cycle was run for 45 minutes (injection, flow through, 0.5 M CaCl2, 1.0 M CaCl2, equilibration buffer, 2% acetic acid, equilibration buffer).
(§3) A Gilson FC204 fraction collector at the HPLC outlet collected individual eluates for further analysis. Each collection tube had 100 μL hSA added to it to stabilize the rFVIII. Fractions collected from the 2% acetic acid eluates were neutralized with 2 M Tris, pH 10.5 to bring the pH to neutrality. The fractions were analyzed for total protein by the integration of the absorbance at 280 nm, for rFVIII by immunoassay (sandwich capture ELISA), and for rFVIII activity by a chromogenic substrate assay.
Tables 5 and 6 present the results from the additional confirmatory binding assays using the column format. The chromatography method was run by injecting the samples at a flow rate of 865 μL/min (413 cm/hr). In order to provide a 10 minute residence time of sample in the column the flow was decreased to 17 μL/min (10 cm/hr) upon injection.
Following the incubation, the flow was set at 865 μL/min (413 cm/hr) for the step clutions of 0.5 M CaCl2, 1.0 M CaCl2, and 2% acetic acid. Results are expressed in terms of the total mass of rFVIII in each fraction, as determined by the sandwich capture ELISA assay for the rFVIII light chain. […] A control using a non-binding peptide sequence (IGF) is also shown for comparison--in this case, 95% of the rFVIII loaded to the column was collected in the flow through fraction. Additional controls with no

rFVIII [3] = molecular target: T1, rFVIII; assay: rFVIII activity recovery from peptide columns by chromogenic substrate assay (COATEST); format: biochemical; conditions: for 0.5M CaCl2 % total: activity recovery; for Flow through IU: rFVIII activity in fraction; for Activity results % total: Table 9, 0.5M CaCl2 fraction
Method: as §1, §2, §3
Tables 7 and 8 list the sequences for which activity recovery was determined by a chromogenic substrate assay (COASTEST kit, diaPharma, Franklin, Ohio). Chromatographc conditions are the same as described above for the results from Tables 5 and 6. It can be

[4] = Table 3, 14C-rFVIII 20 nM in PPF
[5] = Table 3, 14C-rFVIII 20 nM in PPF, 3.0 × 10^15 DPM/mole
[6] = Table 4, 14C-rFVIII 30 nM in PPF

T1 sequence (P00451 20-2351): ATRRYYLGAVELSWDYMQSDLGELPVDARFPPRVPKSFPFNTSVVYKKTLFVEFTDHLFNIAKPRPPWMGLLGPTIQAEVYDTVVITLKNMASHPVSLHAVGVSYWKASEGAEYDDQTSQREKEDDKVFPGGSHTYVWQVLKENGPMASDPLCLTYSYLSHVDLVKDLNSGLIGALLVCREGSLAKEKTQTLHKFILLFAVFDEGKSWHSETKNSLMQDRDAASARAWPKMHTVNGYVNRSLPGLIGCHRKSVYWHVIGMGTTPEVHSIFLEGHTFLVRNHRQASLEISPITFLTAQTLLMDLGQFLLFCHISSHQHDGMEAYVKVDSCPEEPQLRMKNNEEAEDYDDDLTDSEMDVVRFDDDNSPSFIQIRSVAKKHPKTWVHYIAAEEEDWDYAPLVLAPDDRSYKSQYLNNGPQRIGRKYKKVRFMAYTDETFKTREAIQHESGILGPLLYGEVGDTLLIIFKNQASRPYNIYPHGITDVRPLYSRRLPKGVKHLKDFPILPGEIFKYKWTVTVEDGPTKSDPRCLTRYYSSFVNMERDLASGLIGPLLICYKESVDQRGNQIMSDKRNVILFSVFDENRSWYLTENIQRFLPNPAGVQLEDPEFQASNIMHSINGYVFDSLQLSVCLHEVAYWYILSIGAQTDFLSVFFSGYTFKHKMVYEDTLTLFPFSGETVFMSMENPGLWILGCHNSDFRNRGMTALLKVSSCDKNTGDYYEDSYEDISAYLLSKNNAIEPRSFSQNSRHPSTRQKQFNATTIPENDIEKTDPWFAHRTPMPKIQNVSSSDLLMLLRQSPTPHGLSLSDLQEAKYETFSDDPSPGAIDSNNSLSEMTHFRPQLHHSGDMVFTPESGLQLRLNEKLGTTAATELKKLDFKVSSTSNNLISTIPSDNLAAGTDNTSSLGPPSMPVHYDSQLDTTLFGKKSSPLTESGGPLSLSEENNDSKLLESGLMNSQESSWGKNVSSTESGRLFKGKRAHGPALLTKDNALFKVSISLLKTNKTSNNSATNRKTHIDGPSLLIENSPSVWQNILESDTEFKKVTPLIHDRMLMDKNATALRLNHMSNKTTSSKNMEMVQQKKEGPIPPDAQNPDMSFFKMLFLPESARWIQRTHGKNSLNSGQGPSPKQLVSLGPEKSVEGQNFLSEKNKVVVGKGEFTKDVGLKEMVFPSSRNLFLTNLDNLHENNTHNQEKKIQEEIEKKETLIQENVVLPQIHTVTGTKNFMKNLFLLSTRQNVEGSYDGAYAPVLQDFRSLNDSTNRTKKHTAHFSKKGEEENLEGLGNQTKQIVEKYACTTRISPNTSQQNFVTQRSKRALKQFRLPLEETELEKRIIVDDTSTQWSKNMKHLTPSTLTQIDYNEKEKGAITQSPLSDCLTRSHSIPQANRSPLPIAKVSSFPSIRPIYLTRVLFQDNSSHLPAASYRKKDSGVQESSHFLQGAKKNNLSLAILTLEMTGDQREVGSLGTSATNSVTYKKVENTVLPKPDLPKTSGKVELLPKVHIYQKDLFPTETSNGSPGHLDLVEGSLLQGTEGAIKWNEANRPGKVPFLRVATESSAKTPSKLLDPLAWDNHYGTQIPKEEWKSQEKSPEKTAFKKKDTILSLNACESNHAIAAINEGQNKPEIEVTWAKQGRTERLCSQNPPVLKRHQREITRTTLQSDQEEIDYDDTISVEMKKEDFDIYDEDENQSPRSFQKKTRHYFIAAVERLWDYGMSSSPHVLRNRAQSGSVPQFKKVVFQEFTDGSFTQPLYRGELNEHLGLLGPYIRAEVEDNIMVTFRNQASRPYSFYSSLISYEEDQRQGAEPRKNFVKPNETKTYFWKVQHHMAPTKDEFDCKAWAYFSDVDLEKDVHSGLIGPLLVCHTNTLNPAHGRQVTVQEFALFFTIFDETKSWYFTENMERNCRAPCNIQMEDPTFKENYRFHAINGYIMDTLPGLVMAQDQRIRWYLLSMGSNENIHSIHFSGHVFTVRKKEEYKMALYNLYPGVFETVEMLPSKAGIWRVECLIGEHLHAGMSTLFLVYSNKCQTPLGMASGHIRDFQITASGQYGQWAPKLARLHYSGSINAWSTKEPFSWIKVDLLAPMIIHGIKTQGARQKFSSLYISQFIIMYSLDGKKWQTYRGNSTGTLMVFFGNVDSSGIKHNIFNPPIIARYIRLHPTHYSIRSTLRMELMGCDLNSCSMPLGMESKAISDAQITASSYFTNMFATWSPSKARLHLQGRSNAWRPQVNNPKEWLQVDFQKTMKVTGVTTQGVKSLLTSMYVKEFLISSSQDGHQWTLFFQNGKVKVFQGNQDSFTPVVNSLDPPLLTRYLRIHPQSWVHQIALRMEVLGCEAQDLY
T1 sequence (P00451 1668-2351 limits assumed): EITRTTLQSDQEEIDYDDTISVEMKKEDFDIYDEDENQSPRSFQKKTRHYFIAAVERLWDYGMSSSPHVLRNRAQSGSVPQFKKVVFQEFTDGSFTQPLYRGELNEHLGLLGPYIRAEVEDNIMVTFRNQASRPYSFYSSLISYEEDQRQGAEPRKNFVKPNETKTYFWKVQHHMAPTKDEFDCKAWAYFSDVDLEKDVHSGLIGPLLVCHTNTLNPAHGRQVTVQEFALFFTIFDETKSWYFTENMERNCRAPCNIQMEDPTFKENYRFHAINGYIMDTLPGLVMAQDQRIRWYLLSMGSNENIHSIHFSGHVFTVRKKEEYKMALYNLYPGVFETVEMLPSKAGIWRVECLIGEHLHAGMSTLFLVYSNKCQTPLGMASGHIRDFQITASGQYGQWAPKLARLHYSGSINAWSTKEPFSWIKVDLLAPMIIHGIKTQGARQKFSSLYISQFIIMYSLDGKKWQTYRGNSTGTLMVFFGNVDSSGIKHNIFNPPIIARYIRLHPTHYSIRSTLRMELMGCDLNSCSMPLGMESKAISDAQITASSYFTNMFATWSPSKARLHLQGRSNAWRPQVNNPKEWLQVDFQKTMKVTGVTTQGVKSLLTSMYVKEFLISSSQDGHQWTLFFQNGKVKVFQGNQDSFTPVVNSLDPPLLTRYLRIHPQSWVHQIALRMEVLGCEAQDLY

Total dpm (rFVIII [1]; Table 3, 14C-rFVIII 20 nM): 3881 dpm | 0.5M CaCl2 % total (rFVIII [1]; [4]): 83% | 2% acetic acid % total (rFVIII [1]; [4]): 12% | 2% acetic acid dpm (rFVIII [1]; [4]): 458 dpm | 0.5M CaCl2 dpm (rFVIII [1]; [5]): 3236 dpm | beads % total (rFVIII [1]; Table 3, 14C-rFVIII 20 nM): 5% | beads dpm (rFVIII [1]; Table 3, 14C-rFVIII 20 nM): 187 dpm | 0.5M CaCl2 ng (rFVIII [2]; Table 5): 5658 ng | 0.5M CaCl2 % total (rFVIII [2]; Table 5): 90% | 2% acetic acid % total (rFVIII [2]; Table 5): 3% | 2% acetic acid ng (rFVIII [2]; Table 5): 160 ng | Flow through % total (rFVIII [2]; Table 5): 2% | Total ng (rFVIII [2]; Table 5): 6320 ng | Flow through ng (rFVIII [2]; Table 5): 105 ng | ELISA results % total (rFVIII [2]): 90% | 0.5M CaCl2 IU (rFVIII [3]; Table 7): 59.4 IU | 2% acetic acid % total (rFVIII [3]; Table 7): 1% | 2% acetic acid IU (rFVIII [3]; Table 7): 0.5 IU | Flow through % total (rFVIII [3]; Table 7): 0% | Total IU (rFVIII [3]; Table 7): 68.7 IU | 0.5M CaCl2 % total (rFVIII [3]; Table 7): 86% | Flow through IU (rFVIII [3]; Table 7): 0.0 IU | Activity results % total (rFVIII [3]): 86%
Substance: 6 (HYWFYK) [compound 6]

Total dpm (rFVIII [1]; Table 3, 14C-rFVIII 20 nM): 3764 dpm | 0.5M CaCl2 % total (rFVIII [1]; [4]): 85% | 2% acetic acid % total (rFVIII [1]; [4]): 11% | 2% acetic acid dpm (rFVIII [1]; [4]): 415 dpm | 0.5M CaCl2 dpm (rFVIII [1]; [5]): 3184 dpm | beads % total (rFVIII [1]; Table 3, 14C-rFVIII 20 nM): 4% | beads dpm (rFVIII [1]; Table 3, 14C-rFVIII 20 nM): 165 dpm | 0.5M CaCl2 ng (rFVIII [2]; Table 5): 5836 ng | 0.5M CaCl2 % total (rFVIII [2]; Table 5): 94% | 2% acetic acid % total (rFVIII [2]; Table 5): 1% | 2% acetic acid ng (rFVIII [2]; Table 5): 77 ng | Flow through % total (rFVIII [2]; Table 5): 4% | Total ng (rFVIII [2]; Table 5): 6225 ng | Flow through ng (rFVIII [2]; Table 5): 228 ng | ELISA results % total (rFVIII [2]): 94% | 0.5M CaCl2 IU (rFVIII [3]; Table 7): 40.6 IU | 2% acetic acid % total (rFVIII [3]; Table 7): 1% | 2% acetic acid IU (rFVIII [3]; Table 7): 0.4 IU | Flow through % total (rFVIII [3]; Table 7): 0% | Total IU (rFVIII [3]; Table 7): 42.5 IU | 0.5M CaCl2 % total (rFVIII [3]; Table 7): 96% | Flow through IU (rFVIII [3]; Table 7): 0.0 IU | Activity results % total (rFVIII [3]): 96%
Substance: 7 (IRFYSE) [compound 7]

Total dpm (rFVIII [1]; Table 4, 14C-rFVIII 30 nM): 3658 dpm | 0.5M CaCl2 % total (rFVIII [1]; [6]): 93% | 2% acetic acid % total (rFVIII [1]; [6]): 5% | 2% acetic acid dpm (rFVIII [1]; [6]): 176 dpm | 0.5M CaCl2 dpm (rFVIII [1]; Table 4, 14C-rFVIII 30 nM in PPF, 5.0 × 10^15 dpm/mole): 3414 dpm | beads % total (rFVIII [1]; Table 4, 14C-rFVIII 30 nM): 2% | beads dpm (rFVIII [1]; Table 4, 14C-rFVIII 30 nM): 68 dpm | 0.5M CaCl2 ng (rFVIII [2]; Table 6): 7154 ng | 0.5M CaCl2 % total (rFVIII [2]; Table 6): 97% | 2% acetic acid % total (rFVIII [2]; Table 6): 2% | 2% acetic acid ng (rFVIII [2]; Table 6): 181 ng | Flow through % total (rFVIII [2]; Table 6): 0% | Total ng (rFVIII [2]; Table 6): 7403 ng | Flow through ng (rFVIII [2]; Table 6): 0 ng | ELISA results % total (rFVIII [2]): 97% | 0.5M CaCl2 IU (rFVIII [3]; Table 8): 68.9 IU | 2% acetic acid % total (rFVIII [3]; Table 8): 0% | 2% acetic acid IU (rFVIII [3]; Table 8): 0.1 IU | Flow through % total (rFVIII [3]; Table 8): 0% | Total IU (rFVIII [3]; Table 8): 70.2 IU | 0.5M CaCl2 % total (rFVIII [3]; Table 8): 98% | Flow through IU (rFVIII [3]; Table 8): 0.0 IU | Activity results % total (rFVIII [3]): 98%
Substance: 9 (FALPGR) [compound 9]

Reference: US6191256A, “Recombinant factor VIII binding peptides” (Bayer Corporation, priority 1998, dated 2001)
